Results as given in the RNAGym collection of RNA variant scans (doi:10.7554/elife.80360).

B1: HDV Ribozyme (parent)
chain: GGCCGGCAUGGUCCCAGCCUCCUCGCUGGCGCCGGCUGGGCAACAUUCCGAGGGGACCGUCCCCUCGGUAAUGGCGAAUGGGACCCA

Variants of: B1
Assay: self-cleavage, relative activity (ratio to wild type); higher = more cleavage; co-transcriptional

Variant | self-cleavage
GGCCGGCAUGGUCCCAGCCUCCUCGCUGACGCCGACUGGGCAACAUUCCGAGGGGACCGUCCCCUCGGUAAUGGCGAAUGGGACCCA [G29A G35A] | 0.0923
GGCCGGCAUGGUCCCAGCCUCCUCGCUUGCGCCGGCUGGACAACAUUCCGAGGGGACCGUCCCCUCGGUAAUGGCGAAUGGGACCCA [G28U G40A] | 0.104
GGCCGGCAUGGUCCCAGCCUCCUCGCUGACGCCUGCUGGGCAACAUUCCGAGGGGACCGUCCCCUCGGUAAUGGCGAAUGGGACCCA [G29A G34U] | 0.0601
GGCCGGCAUGGUCCCAGCCUCCUCGCUGACGCCGGCCGGGCAACAUUCCGAGGGGACCGUCCCCUCGGUAAUGGCGAAUGGGACCCA [G29A U37C] | 0.17
GGCCGGCAUGGUCCCAGCCUCCUCGCUUGCGCCGGCUGGGCAACAUUCCGAGGGGACCGUCCCCUCGGUAAUGGCGAAUGGCACCCA [G28U G82C] | 0.0272
GGCCGGCAUGGUCCCAGCCUCCUCGCUUGCGCCGGCUGGGCAACAUUCCGAGGGGACCGUCCCCUCGGUAAUGGCGAAUGGAACCCA [G28U G82A] | 0.191
GGCCGGCAUGGUCCCAGCCUCCUCGCUUGCGCCAGCUGGGCAACAUUCCGAGGGGACCGUCCCCUCGGUAAUGGCGAAUGGGACCCA [G28U G34A] | 0.0496
GGCCGGCAUGGUCCCAGCCUCCUCGCUGACGCCGGCUGGGCAACAUUCCGAGGGGACCGUCCCCUCGGUAAUGGCGAAUGGGAGCCA [G29A C84G] | 0.102
GGCCGGCAUGGUCCCAGCCUCCUCGCUGACGCCGGCUGGGCAACAUUCCGAGGGCACCGUCCCCUCGGUAAUGGCGAAUGGGACCCA [G29A G55C] | 0.0563
GGCCGGCAUGGUCCCAGCCUCCUCGCUGACGCCGGCUGGGCAACAUUCCGAGGGGACCGUCCCCUCGGUAAUGGCGAAUUGGACCCA [G29A G80U] | 0.0283
GGCCGGCAUGGUCCCAGCCUCCUCGCUUGCGCCGGCUUGGCAACAUUCCGAGGGGACCGUCCCCUCGGUAAUGGCGAAUGGGACCCA [G28U G38U] | 0.14
GGCCGGCAUGGUCCCAGCCUCCUCGCUUGCUCCGGCUGGGCAACAUUCCGAGGGGACCGUCCCCUCGGUAAUGGCGAAUGGGACCCA [G28U G31U] | 0.0923
GGCCGGCAUGGUCCCAGCCUCCUCGCUGAGGCCGGCUGGGCAACAUUCCGAGGGGACCGUCCCCUCGGUAAUGGCGAAUGGGACCCA [G29A C30G] | 0.0415
GGCCGGCAUGGUCCCAGCCUCCUCGCUGACGCCGGCUGGGCAACAUUCCGAGGGGACCGUCCCCUCGGUAAUGGCGAAUGGCACCCA [G29A G82C] | 0.0627
GGCCGGCAUGGUCCCAGCCUCCUCGCUGACGCCGGCUGGGCAACAUUCCGAGGGGACCGUUCCCUCGGUAAUGGCGAAUGGGACCCA [G29A C61U] | 0.274
GGCCGGCAUGGUCCCAGCCUCCUCGCUGACCCCGGCUGGGCAACAUUCCGAGGGGACCGUCCCCUCGGUAAUGGCGAAUGGGACCCA [G29A G31C] | 0.154
GGCCGGCAUGGUCCCAGCCUCCUCGCUGACACCGGCUGGGCAACAUUCCGAGGGGACCGUCCCCUCGGUAAUGGCGAAUGGGACCCA [G29A G31A] | 0.0723
GGCCGGCAUGGUCCCAGCCUCCUCGCUGACUCCGGCUGGGCAACAUUCCGAGGGGACCGUCCCCUCGGUAAUGGCGAAUGGGACCCA [G29A G31U] | 0.0272
GGCCGGCAUGGUCCCAGCCUCCUCGCUUGCGCCGGCUGGGCAACAUUCCGAGGGGACCGUCCCCUCGGUAAUGGCGAAUGCGACCCA [G28U G81C] | 0.0282
GGCCGGCAUGGUCCCAGCCUCCUCGCUUGCGCCGGCUGGGCAACAUUCCGAGGGGACCGUCCCCUCGGUAAUGGCGAAUGAGACCCA [G28U G81A] | 0.158
GGCCGGCAUGGUCCCAGCCUCCUCGCUGACGCCGGCUGGGCAACAUUCCGAGGGGACCGUCCCCUCGGUAAUGGCUAAUGGGACCCA [G29A G76U] | 0.428
GGCCGGCAUGGUCCCAGCCUCCUCGCUGACGCCGGCUGGGCAACAUUCCGAGGGGACCGUCCCCUCGGUAAUGGCAAAUGGGACCCA [G29A G76A] | 0.328

Variant | self-cleavage
GGCCGGCAUGGUCCCAGCCUCCUCGCUUGCGCCGGCUGGGCAACAUUCCGAGGGGACCGUCCCCUCGGUAAUGGCGAAUUGGACCCA [G28U G80U] | 0.1
GGCCGGCAUGGUCCCAGCCUCCUCGCUGACGCCGGCUCGGCAACAUUCCGAGGGGACCGUCCCCUCGGUAAUGGCGAAUGGGACCCA [G29A G38C] | 0.0292
GGCCGGCAUGGUCCCAGCCUCCUCGCUGACGCCGGCUAGGCAACAUUCCGAGGGGACCGUCCCCUCGGUAAUGGCGAAUGGGACCCA [G29A G38A] | 0.0623
GGCCGGCAUGGUCCCAGCCUCCUCGCUGACGCCGGCUGGGCAACAUUCCGCGGGGACCGUCCCCUCGGUAAUGGCGAAUGGGACCCA [G29A A51C] | 0.121
GGCCGGCAUGGUCCCAGCCUCCUCGCUGACGCCGGCUGGGCAACAUUCCGAGGGGUCCGUCCCCUCGGUAAUGGCGAAUGGGACCCA [G29A A56U] | 0.111
GGCCGGCAUGGUCCCAGCCUCCUCGCUGACGCCGGCUGGGCAACAUUCCGAGGGGACCGUCCCCUCGGUAAUAGCGAAUGGGACCCA [G29A G73A] | 0.143
GGCCGGCAUGGUCCCAGCCUCCUCGCUGACGCCGGCUGGGCAACAUUCCGAGGGGACCGUCCCCUCGGUAAUCGCGAAUGGGACCCA [G29A G73C] | 0.0639
GGCCGGCAUGGUCCCAGCCUCCUCGCUUGCGCCGGCUGGGCAACAUUCCGAGGGGACCGUCCCCUCGGUAAUGGCGAAUGGGAGCCA [G28U C84G] | 0.13
GGCCGGCAUGGUCCCAGCCUCCUCGCUUGCGCCGGCUGGGCAACAUUCCGAGGGGACCGUCCCCUCGGUAAGGGCGAAUGGGACCCA [G28U U72G] | 0.0554
GGCCGGCAUGGUCCCAGCCUCCUCGCUUGCGCCGGCUGGGCAACAUUCCGAGGGGACCGUCCCCUCGGUAACGGCGAAUGGGACCCA [G28U U72C] | 0.0898
GGCCGGCAUGGUCCCAGCCUCCUCGCUUGCGCCGGCUGGGCAACAUUCCGAGGGCACCGUCCCCUCGGUAAUGGCGAAUGGGACCCA [G28U G55C] | 0.138
GGCCGGCAUGGUCCCAGCCUCCUCGCUGACGCCGGCUGGGCAACAUUCCGAGGGGACCGUCCCCUCGGUAAUGGCGAAUGGGACCAA [G29A C86A] | 0.155
GGCCGGCAUGGUCCCAGCCUCCUCGCUGACGCCGGCUGGGCAACAUUCCCAGGGGACCGUCCCCUCGGUAAUGGCGAAUGGGACCCA [G29A G50C] | 0.121
GGCCGGCAUGGUCCCAGCCUCCUCGCUGACGCCGGCUGGGCAACAUUCCGAGGGGACCGUCCCCUCGGUAAUGGAGAAUGGGACCCA [G29A C75A] | 0.0852
GGCCGGCAUGGUCCCAGCCUCCUCGCUGACGCCGGCUGGGCAACAUUCCGAGGGGACCCUCCCCUCGGUAAUGGCGAAUGGGACCCA [G29A G59C] | 0.123
GGCCGGCAUGGUCCCAGCCUCCUCGCUGACGCCGGCUGGGCAACAUUCCGAGGGGACCAUCCCCUCGGUAAUGGCGAAUGGGACCCA [G29A G59A] | 0.179
GGCCGGCAUGGUCCCAGCCUCCUCGCUGACGCCGGCUGGGCAACAUUCCGAGGGGACCGUCCCCUCGGUAAUGGCGCAUGGGACCCA [G29A A77C] | 0.111
GGCCGGCAUGGUCCCAGCCUCCUCGCUUGCGCCGGCUGGGCAACAUUCCGACGGGACCGUCCCCUCGGUAAUGGCGAAUGGGACCCA [G28U G52C] | 0.154
GGCCGGCAUGGUCCCAGCCUCCUCGCUUGCGCCGGCUGGGCAACAUUCCGAGGGGACCGUCCCCUCGGUAAUGGCGAAUGGGACACA [G28U C85A] | 0.203
GGCCGGCAUGGUCCCAGCCUCCUCGCUGACGCCGGCUGGGCAACAUUCCGAGGGGACCGUCGCCUCGGUAAUGGCGAAUGGGACCCA [G29A C62G] | 0.169
GGCCGGCAUGGUCCCAGCCUCCUCGCUUGCGCCGGCUGGGCAACAUUCCGAGGGGACCGUCCCCUCUGUAAUGGCGAAUGGGACCCA [G28U G67U] | 0.137
GGCCGGCAUGGUCCCAGCCUCCUCGCUGACGCCGGUUGGGCAACAUUCCGAGGGGACCGUCCCCUCGGUAAUGGCGAAUGGGACCCA [G29A C36U] | 0.0264

Variant | self-cleavage
GGCCGGCAUGGUCCCAGCCUCCUCGCUGACGCCGGCUGGGCAACAUUCCGAGGGGACCGUCCCCUGGGUAAUGGCGAAUGGGACCCA [G29A C66G] | 0.204
GGCCGGCAUGGUCCCAGCCUCCUCGCUGACGCCGGCUGGGCAACAUUCCGAGGGGACCGUCCCCUCGGUAAUGGCGAAUGGGACCCC [G29A A87C] | 0.0602
GGCCGGCAUGGUCCCAGCCUCCUCGCUGACGCCGGCUGGGCAACAUUCCGAGGGGACCGUCCCCUCGGUAAUGGCGAAUGGGACCCG [G29A A87G] | 0.135
GGCCGGCAUGGUCCCAGCCUCCUCGCUGACGCCGGCUGGGCAACAUUCCGAGGGGACCGUCCCCUCGGUAAUGGCGAAUGGGACCCU [G29A A87U] | 0.155
GGCCGGCAUGGUCCCAGCCUCCUCGCUGACGCCGGCUGGGCAACAUUCCGAGGGGACCGUCCCCUCGGUAAUGACGAAUGGGACCCA [G29A G74A] | 0.0773
GGCCGGCAUGGUCCCAGCCUCCUCGCUUGCGCCGGCUGGGCAACAAUCCGAGGGGACCGUCCCCUCGGUAAUGGCGAAUGGGACCCA [G28U U46A] | 0.111
GGCCGGCAUGGUCCCAGCCUCCUCGCUUGCGCCGGCUGGGCAACAUUCCGAGGGGACCGUCCCCACGGUAAUGGCGAAUGGGACCCA [G28U U65A] | 0.0339
GGCCGGCAUGGUCCCAGCCUCCUCGCUGACGCCGGCUGGGCACCAUUCCGAGGGGACCGUCCCCUCGGUAAUGGCGAAUGGGACCCA [G29A A43C] | 0.0978
GGCCGGCAUGGUCCCAGCCUCCUCGCUGACGCCGGCUGGGCAACAUUCGGAGGGGACCGUCCCCUCGGUAAUGGCGAAUGGGACCCA [G29A C49G] | 0.225
GGCCGGCAUGGUCCCAGCCUCCUCGCUUGCGCCGGCUGGGCAACAUUCCGAGGGGACCGUCCCUUCGGUAAUGGCGAAUGGGACCCA [G28U C64U] | 0.0733
GGCCGGCAUGGUCCCAGCCUCCUCGCUUUCGCCGGCUGGGCAACAUUCCGAGGGGACCGUCCCCUCGGUAAUGGCGAAUGGGACCCA [G28U G29U] | 0.107
GGCCGGCAUGGUCCCAGCCUCCUCGCUUGCGCCGGCUGGGCAACAUCCCGAGGGGACCGUCCCCUCGGUAAUGGCGAAUGGGACCCA [G28U U47C] | 0.297
GGCCGGCAUGGUCCCAGCCUCCUCGCUGACGGCGGCUGGGCAACAUUCCGAGGGGACCGUCCCCUCGGUAAUGGCGAAUGGGACCCA [G29A C32G] | 0.0219
GGCCGGCAUGGUCCCAGCCUCCUCGCUGACGCGGGCUGGGCAACAUUCCGAGGGGACCGUCCCCUCGGUAAUGGCGAAUGGGACCCA [G29A C33G] | 0.0346
GGCCGGCAUGGUCCCAGCCUCCUCGCUGACGCUGGCUGGGCAACAUUCCGAGGGGACCGUCCCCUCGGUAAUGGCGAAUGGGACCCA [G29A C33U] | 0.111
GGCCGGCAUGGUCCCAGCCUCCUCGCUGACGCCGGCUGGGCAACAUUCCGAGGGGACCGUCCCCUCGGUAAUGGCGAAUGGGACACA [G29A C85A] | 0.17
GGCCGGCAUGGUCCCAGCCUCCUCGCUGACGCCGGCUGGCCAACAUUCCGAGGGGACCGUCCCCUCGGUAAUGGCGAAUGGGACCCA [G29A G40C] | 0.0656
GGCCGGCAUGGUCCCAGCCUCCUCGCUGACGCCGGCUGGUCAACAUUCCGAGGGGACCGUCCCCUCGGUAAUGGCGAAUGGGACCCA [G29A G40U] | 0.0831
GGCCGGCAUGGUCCCAGCCUCCUCGCUGACGCCGGCUGGGCAACAUUCCGAGGGGACCGUCCCCUCGGUACUGGCGAAUGGGACCCA [G29A A71C] | 0.089
GGCCGGCAUGGUCCCAGCCUCCUCGCUUGCGCCGGCUGGGCAACAUUCCGAGGGGACCGUCCCCUUGGUAAUGGCGAAUGGGACCCA [G28U C66U] | 0.19
